Where a chain is given by its changes, count along the chain named. Names and notes keep the numbering of the source.
B1: AGT WT (enzyme, human)
chain: MASHKLLVTPPKALLKPLSIPNQLLLGPGPSNLPPRIMAAGGLQMIGSMSKDMYQIMDEIKEGIQYVFQTRNPLTLVISGSGHCALEAALVNVLEPGDSFLVGANGIWGQRAVDIGERIGARVHPMTKDPGGHYTLQEVEEGLAQHKPVLLFLTHGESSTGVLQPLDGFGELCHRYKCLLLVDSVASLGGTPLYMDRQGIDILYSGSQKALNAPPGTSLISFSDKAKKKMYSRKTKPFSFYLDIKWLANFWGCDDQPRMYHHTIPVISLYSLRESLALIAEQGLENSWRQHREAAAYLHGRLQALGLQLFVKDPALRLPTVTTVAVPAGYDWRDIVSYVIDHFDIEIMGGLGPSTGKVLRIGLLGCNATRENVDRVTEALRAALQHCPKKKL
B2: AGT LM p.S81A (enzyme, human)
chain: B1 chain with P11L, S81A, I340M
B3: AGT WT p.S81D (enzyme, human)
chain: B1 chain with S81D
B4: AGT LM-p.G170R p.S81D (enzyme, human)
chain: B1 chain with P11L, S81D, G170R, I340M
B5: AGT LM-p.G170R (enzyme, human)
chain: B1 chain with P11L, G170R, I340M
B6: AGT LM-p.I244T p.S81D (enzyme, human)
chain: B1 chain with P11L, S81D, I244T, I340M
B7: AGT LM-p.I244T p.S81A (enzyme, human)
chain: B1 chain with P11L, S81A, I244T, I340M
B8: AGT LM (enzyme, human)
chain: B1 chain with P11L, I340M
B9: AGT LM-p.I244T (enzyme, human)
chain: B1 chain with P11L, I244T, I340M
B10: AGT LM-p.G170R p.S81A (enzyme, human)
chain: B1 chain with P11L, S81A, G170R, I340M
B11: AGT LM p.S81D (enzyme, human)
chain: B1 chain with P11L, S81D, I340M
B12: AGT WT p.S81A (enzyme, human)
chain: B1 chain with S81A

Target: the molecule itself
Experiment: dynamic light scattering

Stoichiometry N, 2:
B1, B2, B3, B4, B5, B6, B7, B8, B9, B10, B11, B12

— article doi:10.1101/2025.04.14.648764 (bioRxiv, 2025)
